According to patent CN115873113A (SHANGHAI INST MATERIA MEDICA CAS, dated 2023):

T1: CaSR (细胞内钙流实验中的受体) (human, UniProt P41180 20-1078)
T1 sequence (looked up): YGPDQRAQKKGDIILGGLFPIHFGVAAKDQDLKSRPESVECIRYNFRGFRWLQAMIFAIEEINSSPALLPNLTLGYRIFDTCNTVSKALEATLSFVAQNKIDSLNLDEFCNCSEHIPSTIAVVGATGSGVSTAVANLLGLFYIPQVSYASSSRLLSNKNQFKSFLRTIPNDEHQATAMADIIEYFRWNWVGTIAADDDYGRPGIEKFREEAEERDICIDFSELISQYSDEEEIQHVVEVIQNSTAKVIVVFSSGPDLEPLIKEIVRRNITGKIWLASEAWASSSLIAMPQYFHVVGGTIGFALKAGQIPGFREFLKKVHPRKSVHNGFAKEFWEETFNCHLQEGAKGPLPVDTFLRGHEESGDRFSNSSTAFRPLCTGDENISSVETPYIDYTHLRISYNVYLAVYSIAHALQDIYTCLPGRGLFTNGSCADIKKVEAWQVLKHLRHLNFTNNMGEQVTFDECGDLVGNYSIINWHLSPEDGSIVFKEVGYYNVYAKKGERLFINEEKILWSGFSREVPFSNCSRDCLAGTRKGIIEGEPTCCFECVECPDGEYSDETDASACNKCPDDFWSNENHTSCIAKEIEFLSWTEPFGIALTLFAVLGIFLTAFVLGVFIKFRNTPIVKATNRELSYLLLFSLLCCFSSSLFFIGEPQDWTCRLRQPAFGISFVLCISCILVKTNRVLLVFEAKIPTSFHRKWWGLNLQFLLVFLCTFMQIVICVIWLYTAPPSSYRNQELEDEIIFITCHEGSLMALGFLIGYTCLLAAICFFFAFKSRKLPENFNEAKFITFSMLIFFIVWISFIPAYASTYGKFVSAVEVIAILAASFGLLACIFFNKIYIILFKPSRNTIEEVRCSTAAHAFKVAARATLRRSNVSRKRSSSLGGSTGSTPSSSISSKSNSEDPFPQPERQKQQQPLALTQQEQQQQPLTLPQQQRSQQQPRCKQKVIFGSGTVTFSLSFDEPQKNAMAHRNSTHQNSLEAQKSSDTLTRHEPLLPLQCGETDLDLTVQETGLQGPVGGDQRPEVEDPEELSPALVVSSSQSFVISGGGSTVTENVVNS

T2: Biotin-CaSR蛋白 (人体细胞外钙敏感受体, Human extracellular calcium-sensing receptor) (human, UniProt P41180 20-870, limits assumed, biotinylated (Biotin-CaSR); site not stated)
T2 construct: Purified, detergent-solubilised CaSR; It was biotinylated and captured on NeutrAvidin plates for ELISA or on streptavidin biosensors for Octet
T2 sequence (looked up): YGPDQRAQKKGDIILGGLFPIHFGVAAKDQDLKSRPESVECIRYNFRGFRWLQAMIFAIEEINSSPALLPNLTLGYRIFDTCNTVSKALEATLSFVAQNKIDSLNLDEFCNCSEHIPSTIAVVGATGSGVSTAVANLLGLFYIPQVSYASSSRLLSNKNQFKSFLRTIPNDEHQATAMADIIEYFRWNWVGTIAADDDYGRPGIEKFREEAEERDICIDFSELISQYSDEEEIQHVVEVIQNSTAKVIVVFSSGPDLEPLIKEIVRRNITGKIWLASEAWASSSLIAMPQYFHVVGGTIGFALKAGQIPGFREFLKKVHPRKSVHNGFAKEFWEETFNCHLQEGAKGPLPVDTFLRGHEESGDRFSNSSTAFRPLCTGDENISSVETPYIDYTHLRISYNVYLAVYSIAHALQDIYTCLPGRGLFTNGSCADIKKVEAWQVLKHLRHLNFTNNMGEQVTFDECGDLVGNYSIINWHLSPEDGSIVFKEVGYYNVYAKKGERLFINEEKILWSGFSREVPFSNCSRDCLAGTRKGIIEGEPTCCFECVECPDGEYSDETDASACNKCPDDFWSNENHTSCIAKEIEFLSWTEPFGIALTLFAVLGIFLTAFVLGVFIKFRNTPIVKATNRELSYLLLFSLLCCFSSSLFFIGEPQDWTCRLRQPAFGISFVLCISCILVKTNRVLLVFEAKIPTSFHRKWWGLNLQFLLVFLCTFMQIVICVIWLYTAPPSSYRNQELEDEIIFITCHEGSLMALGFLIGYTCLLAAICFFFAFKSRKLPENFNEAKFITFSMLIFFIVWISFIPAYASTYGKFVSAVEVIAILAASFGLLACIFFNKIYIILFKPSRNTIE


Legend:
[1] = molecular target: T1, CaSR (细胞内钙流实验中的受体); experiment: cell-based or functional assay
[2] = molecular target: T2, Biotin-CaSR蛋白 (人体细胞外钙敏感受体, Human …); experiment: ELISA, Biotin-CaSR on NeutrAvidin plate, nanobody titrated 1e-11 to 1e-6 mol/l, anti-HA detection
[3] = molecular target: T2, Biotin-CaSR蛋白 (人体细胞外钙敏感受体, Human …); experiment: BLI (Octet-Red96), Biotin-CaSR on streptavidin biosensor, nanobody in solution

| Binder | 钙流 IC50 (细胞外钙离子浓度1.2mM) [1] | EC50 [2] | Kd [3] |
| --- | --- | --- | --- |
| 纳米抗体2D4 (VHH, Camel VHH expressed in E. coli and purified on a nickel column; It was detected through an HA tag; also called 抗体株2D4) VHH: LQESGGGSVQIGGSLRLSCAASGYTYMRYSSFCMGWFRQAPGKEREGVAAIDSGRRTTHADSVKGRFTISRDNAKNTLYLQMNSLKPEDTAMYYCAARDVGYCGGYWARRDFAYWGQGTQVTVSS | 65 nM | 0.9 | 0.46 nM |
| 纳米抗体NB88 (VHH, Camel VHH expressed in E. coli and purified on a nickel column; It was detected through an HA tag; also called 抗体株NB88) VHH: QVQLQESGGGSVQAGESLRLSCAASRYGYSRNWMGWFRQPPGKEREGVAVIYTGGSKTAYADAVKGRFIISLDNANNTVYLQMNSLKPEDTAMYYCAAGLVAYGRRWSPEAYKYWGQGTQVTVSS | 101 nM | 1 | 3.9 nM |
| 纳米抗体1C12 (VHH, Camel VHH expressed in E. coli and purified on a nickel column; also called 抗体株1C12) VHH: QVQLQESGGGSVQAGGSLRLSCTASRYTYNSPLYMAWFRQAPGKEREGVAHIDSDGSITYTDSVKGRFTISRDNAKTTLYLQMNNLNPEDTAMYYCAADPLHRWSHRLEAIGYRYWGQGTQVTVSS | 107 nM | 2.1 | 0.9 nM |
| 纳米抗体2D11 (VHH, Camel VHH expressed in E. coli and purified on a nickel column; It was detected through an HA tag; also called 抗体株2D11) VHH: QVQLQESGGGSVQAGGSLRLSCAASGFPISTYDMGWFRQAPGKEREGVVGITDSFSIKYEDSVKGRFTISRDNAKNALYLQMNSLKPEDTGMYYCAAGDARWSLLLRAEQYNYWGQGTQVTVSS | 41 nM | 1.9 | 0.24 nM |
| 纳米抗体NB32 (VHH, Camel VHH expressed in E. coli and purified on a nickel column; It was detected through an HA tag; also called 抗体株NB32) VHH: QVQLQESGGGSVQAGGSLTLSCAASEYKHRYSTYSMGWFRQAPGKEREGVAAIYSDGGTRYADSVKGRFTISKDNAKSTLYLLMNSLKPEDTAMYYCAASQTFRGWYPYEYNYWGQGTQVTVSS | 301 nM | 3 | 3.2 nM |
